The values that follow come from article PMC9654039, “FUS Microphase Separation: Regulation by Nucleic Acid Polymers and DNA Repair Proteins”.

Series [1] has as its target T1, FUS∆LCD (UniProt P35637 164-526). The experiment in a line: fluorescence titration (Cy3-protein intensity). The settings on record: apparent Kd; concentration as rNMP (nucleotides), not molecules; Hill fit n 3.07; Buffer, salt, pH and temperature of the fluorescence titrations are not given in the material; concentrations are in nucleotide units. Poly(ADP-ribose) (Kd,app …).

Series [2] has as its target T1, FUS∆LCD. The series is described as follows: fluorescence titration (Cy3-protein intensity); apparent Kd; concentration as dNMP (nucleotides), not molecules; Hill fit n 1.12; Buffer, salt, pH and temperature of the fluorescence titrations are not given in the material; concentrations are in nucleotide units. Poly(ADP-ribose) (Kd,app). To be noted: protein: recombinant; tags: Cy3 label (sulfo-cyanine 3 NHS ester); blunt; one-nucleotide gap between strands 1 and 2, opposite G of strand 3.

T1 sequence (P35637 164-526): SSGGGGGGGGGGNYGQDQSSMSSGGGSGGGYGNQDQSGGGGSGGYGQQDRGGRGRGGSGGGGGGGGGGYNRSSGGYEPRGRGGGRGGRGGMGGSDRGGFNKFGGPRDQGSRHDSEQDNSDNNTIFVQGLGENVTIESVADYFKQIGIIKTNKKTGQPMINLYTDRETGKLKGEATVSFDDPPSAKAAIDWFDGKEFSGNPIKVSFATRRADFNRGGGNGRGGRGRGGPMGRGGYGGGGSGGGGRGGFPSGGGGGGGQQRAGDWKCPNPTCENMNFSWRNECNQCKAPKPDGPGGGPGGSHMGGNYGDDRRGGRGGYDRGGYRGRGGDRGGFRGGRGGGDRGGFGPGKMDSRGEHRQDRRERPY

RNA (~3000 nt luciferase mRNA): the Kd in series [1] is 183 nM.

B1: dsDNA (30 bp, one-nucleotide gap) (dsDNA)
DNA 1: GGGTTGGTTTGCG
DNA 2: ATTCACAGTTCTCCGC
DNA 3: GCGGAGAACTGTGAATGCGCAAACCAACCC
modifications: 5'-phosphate on S4 (downstream strand); 3'-OH on S3
For B1, the Kd in series [2] came out at 2560 ± 159 nM.
